Measurements published in paper PMC11384114.

Target: cLUC-SlPIF4 (tomato (Solanum lycopersicum))
Test: split reporter (BiFC, NanoBiT); split luciferase complementation: cLUC-SlPIF4 and nLUC-SlDELLA co-expressed in N. benthamiana leaves for 2 days; 1 mM D-luciferin; camera and microplate luminometer

Chain of cLUC-SlPIF4 (tomato (Solanum lycopersicum)) (main, as listed by the source): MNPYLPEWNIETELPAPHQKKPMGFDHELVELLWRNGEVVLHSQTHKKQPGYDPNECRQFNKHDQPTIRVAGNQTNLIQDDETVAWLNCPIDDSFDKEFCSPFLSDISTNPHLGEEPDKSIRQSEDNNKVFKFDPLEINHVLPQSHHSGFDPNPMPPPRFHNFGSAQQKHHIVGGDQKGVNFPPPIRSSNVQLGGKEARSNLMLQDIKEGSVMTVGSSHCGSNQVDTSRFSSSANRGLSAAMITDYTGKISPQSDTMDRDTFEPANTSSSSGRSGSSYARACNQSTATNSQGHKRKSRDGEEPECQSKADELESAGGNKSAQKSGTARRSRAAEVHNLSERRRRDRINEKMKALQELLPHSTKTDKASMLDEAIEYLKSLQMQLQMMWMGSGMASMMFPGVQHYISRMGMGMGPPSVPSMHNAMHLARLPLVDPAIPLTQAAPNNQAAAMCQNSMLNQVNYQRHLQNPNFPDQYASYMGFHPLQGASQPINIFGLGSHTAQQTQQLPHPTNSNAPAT

luciferase activity, fold over the control co-expressing cLUC and nLUC (times the control): 170
Substance: nLUC-SlDELLA (natural protein)
